Data: patent EP4566632A1, “MSLN ANTIBODY-DRUG CONJUGATE” (priority 2022, dated 2024)

Tested on: NCI-H226 cells
Test: Lung cancer NCI-H226 model
Assay type: in vivo, BALB/c Nude mouse
Conditions: tail vein, twice a week x5, day 28 post-administration
Description: NCI-H226 cells were cultured in a RPMI-1640 medium containing 10% fetal bovine serum at 37°C in a 5% CO2 atmosphere. On the day of inoculation, NCI-H226 cells in the exponential growth phase were collected. Tumor cells were first resuspended in a mixture of PBS and Matrigel (1:1) and then subcutaneously inoculated. Each BALB/c Nude mouse was subcutaneously inoculated with 5 × 10^6 NCI-H226 tumor cells. When the average tumor volume in each group of mice reached 150 mm^3, the mice were divided into groups for dosing. 55 mice were divided into 11 groups, after which dosing began. The dosing schedule was twice a week for a total of five administrations via tail vein injection at doses of 1 mg/kg body weight or 5 mg/kg body weight. After dosing began, body weight and tumor volume were measured twice weekly. Tumor volume was calculated using the formula of: Tumor Volume (mm^3) = 0.5 × Tumor long diameter × Tumor short diameter^2. Observations concluded on day 28 post-administration, followed by the euthanasia of all mice. Data analysis was performed using the t-test.

B1: BAY-949343: ADC developed by Bayer: anti-MSLN monoclonal antibody MF-T (anetumab) conjugated to maytansinoid DM4 via SPDB linker (conjugate, chains of the INN, looked up)
VH: QVELVQSGAEVKKPGESLKISCKGSGYSFTSYWIGWVRQAPGKGLEWMGIIDPGDSRTRYSPSFQGQVTISADKSISTAYLQWSSLKASDTAMYYCARGQLYGGTYMDGWGQGTLVTVSS
VL: DIALTQPASVSGSPGQSITISCTGTSSDIGGYNSVSWYQQHPGKAPKLMIYGVNNRPSGVSNRFSGSKSGNTASLTISGLQAEDEADYYCSSYDIESATPVFGGGTKLTVL
modifications: DM4 via SPDB linker (ravtansine)
average tumor volume (1 mg/kg): 497 mm^3 | tumor growth inhibition rate (TGI, %) (1 mg/kg): 68% | average tumor volume (5 mg/kg): 253 mm^3 | tumor growth inhibition rate (TGI, %) (5 mg/kg): 84%
